These results are taken from publication PMC4517315, “Functional properties and structural characterization of rice δ^1-pyrroline-5-carboxylate reductase” (Frontiers in Plant Science, 2015).

The target in series [1] is rice (Oryza sativa L.) δ1-pyrroline-5-carboxylate (P5C) reductase, from pET151-OsP5CR, TEV-cleaved (Oryza sativa (japonica rice)). Nature of the series: SEC; gel permeation on Superose 12 HR 10/30, 50 mM Tris-HCl pH 7.75, 250 mM NaCl, 100 uL of protein at 10 mg/mL, calibrated with molecular weight markers; identical elution patterns up to 1 M NaCl (data not shown); size of the oligomer from the apparent mass.

Series [2] deals with T1, rice δ^1-pyrroline-5-carboxylate reductase (Oryza sativa, UniProt Q8GT01).
T1 construct: gene Os01g0948400
Nature of the series: product inhibition of purified recombinant enzyme, NADH-dependent P5C reduction at […] nm; Lineweaver-Burk/non-linear regression. Format: biochemical.

For series [3], the target named is Oryza sativa P5C reductase, from pMCSG68, for crystallization (Oryza sativa (japonica rice)). As to the kind of experiment: crystal structure; 3.40 Å, space group P2(1), two decamers in the asymmetric unit; crystals from 100 mM Tris-HCl pH 8.5, 200 mM MgCl2, 18% PEG 8000, 19°C; molecular replacement with a homology model based on PDB 2izz.
Substrate in series [4]: NC(=O)C1=CN([C@@H]2O[C@H](COP(=O)(O)OP(=O)(O)OC[C@H]3O[C@@H](n4cnc5c(N)ncnc54)[C@H](O)[C@@H]3O)[C@@H](O)[C@H]2O)C=CC1
Nature of the series: purified protein. Conditions: P5C binding is required to allow NADH to enter the active site; varied: cofactor.

Substrate in series [5]: NC(=O)C1=CN([C@@H]2O[C@H](COP(=O)(O)OP(=O)(O)OC[C@H]3O[C@@H](n4cnc5c(N)ncnc54)[C@H](OP(=O)(O)O)[C@@H]3O)[C@@H](O)[C@H]2O)C=CC1
As to the kind of experiment: purified protein. The note with it: varied: cofactor.

Substrate in series [6]: O=C(O)C1CCC=N1
As to the kind of experiment: purified protein. In kind it is biochemical, Oryza sativa. Conditions: NADPH P5C binds before NADPH (ordered substrate binding).

Consider “rice (Oryza sativa L.) δ1-pyrroline-5-carboxylate (P5C) reductase, from pET151-OsP5CR, TEV-cleaved (enzyme)”, for which the stoichiometry N – broadly, a count of units in the complex or per binding partner – in series [1] turned out to be 14 subunits.

As for `O=C(O)[C@@H]1CCCN1` [L-proline], the Ki – broadly, the equilibrium dissociation constant of an inhibitor or competing ligand from its target – in series [2] was 20.2 ± 1 mM.

`NC(=O)c1ccc[n+]([C@@H]2O[C@H](COP(=O)([O-])OP(=O)(O)OC[C@H]3O[C@@H](n4cnc5c(N)ncnc54)[C@H](OP(=O)(O)O)[C@@H]3O)[C@@H](O)[C@H]2O)c1` [NADP^+]: in series [2], the Ki was determined as 0.00773 ± 0.00069 mM.

Turning to “Oryza sativa P5C reductase, from pMCSG68, for crystallization (enzyme)”, the stoichiometry N in series [3] was determined as 10 subunits.

B1: rice δ^1-pyrroline-5-carboxylate reductase (Oryza sativa Japonica Group) (protein)
chain: MAAPPQPVPAPAAASPEVFRLGFIGPGNLAESIARGVAASGVLPATAIRTAPHRRPERAEAFSSIGAHILETNAQVVDDSDVIVISVKPQIVRQVLVELKPLLSEEKLLVSIAAGIKMEDLQGWSGHRRFIRVMPNTPSAVGQAASVMCLGEMATENDENRVRSLFSAIGKVWTAEEKYFDAVTGLSGSGPAYIFLAIEAMADGGVAAGLPRDLALGLASQTVLGAATMVNKTGKHPGQLKDMVTSPAGTTITGIQELEKGAFRGTLINAVVAATKRCRELSQS
On to B1, for which the Km – broadly, the substrate concentration at which the rate is half of its maximum – in series [4] is 806 ± 89 µM; in series [5], 49.4 ± 1.8 µM; in series [6], 28.8 ± 1.7 µM. The values for the Vmax in series [4] and in series [5] were 158.3 ± 13.2 μkat (mg protein)^-1 and 11.68 ± 0.16 μkat (mg protein)^-1, respectively.
